Experimental data published in IntAct's records for PubMed 31515488.

Tests used:
[1] = molecular target: hbaz_human HBZ (UniProt P02008)
[2] = molecular target: klhl2_human KLHL2 (UniProt O95198)
[3] = molecular target: T1, magd1_human MAGED1 (UniProt Q9Y5V3)
T1 sequence: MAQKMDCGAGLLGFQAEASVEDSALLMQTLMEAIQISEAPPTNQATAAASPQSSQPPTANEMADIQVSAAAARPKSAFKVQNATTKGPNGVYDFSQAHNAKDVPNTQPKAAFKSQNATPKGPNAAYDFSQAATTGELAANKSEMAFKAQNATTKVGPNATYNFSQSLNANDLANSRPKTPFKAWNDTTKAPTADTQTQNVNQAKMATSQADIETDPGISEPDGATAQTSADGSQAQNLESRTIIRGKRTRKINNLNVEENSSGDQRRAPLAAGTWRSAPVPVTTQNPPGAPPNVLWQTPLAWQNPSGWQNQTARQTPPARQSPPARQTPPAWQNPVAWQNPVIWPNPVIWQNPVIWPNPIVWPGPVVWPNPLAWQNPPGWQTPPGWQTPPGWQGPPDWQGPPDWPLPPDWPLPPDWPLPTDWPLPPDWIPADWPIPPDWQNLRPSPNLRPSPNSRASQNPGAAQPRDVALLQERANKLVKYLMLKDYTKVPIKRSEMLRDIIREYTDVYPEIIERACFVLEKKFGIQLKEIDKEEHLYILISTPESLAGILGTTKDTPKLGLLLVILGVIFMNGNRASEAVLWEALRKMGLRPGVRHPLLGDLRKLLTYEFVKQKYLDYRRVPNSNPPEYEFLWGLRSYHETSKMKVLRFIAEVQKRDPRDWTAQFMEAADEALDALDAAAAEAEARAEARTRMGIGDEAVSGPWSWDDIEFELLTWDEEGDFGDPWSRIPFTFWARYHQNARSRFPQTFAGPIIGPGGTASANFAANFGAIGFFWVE

[4] = molecular target: nmna1_human NMNAT1 (UniProt Q9HAN9)
[5] = molecular target: mlh1_human MLH1 (UniProt P40692)
[6] = molecular target: T2, neca2_human NECAB2 (UniProt Q7Z6G3)
T2 sequence: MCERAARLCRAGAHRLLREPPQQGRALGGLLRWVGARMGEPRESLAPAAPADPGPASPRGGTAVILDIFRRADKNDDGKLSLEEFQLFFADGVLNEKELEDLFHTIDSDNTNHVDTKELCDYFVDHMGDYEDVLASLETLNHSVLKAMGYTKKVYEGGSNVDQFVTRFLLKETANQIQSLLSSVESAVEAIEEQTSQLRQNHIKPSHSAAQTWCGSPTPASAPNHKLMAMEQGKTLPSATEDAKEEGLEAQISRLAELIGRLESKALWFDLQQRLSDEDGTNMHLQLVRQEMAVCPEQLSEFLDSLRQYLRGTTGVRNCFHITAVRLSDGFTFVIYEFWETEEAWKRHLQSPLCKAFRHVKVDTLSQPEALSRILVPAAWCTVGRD

[7] = molecular target: T3, srtd3_human SERTAD3 (UniProt Q9UJW9)
T3 sequence: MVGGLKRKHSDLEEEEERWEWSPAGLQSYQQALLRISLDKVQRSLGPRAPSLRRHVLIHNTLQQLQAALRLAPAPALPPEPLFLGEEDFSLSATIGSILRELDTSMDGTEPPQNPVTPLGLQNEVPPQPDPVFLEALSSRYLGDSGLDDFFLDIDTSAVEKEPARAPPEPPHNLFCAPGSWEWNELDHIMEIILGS

[8] = molecular target: tcl1a_human TCL1A (UniProt P56279)
[9] = molecular target: itf2_human TCF4 (UniProt P15884)
[10] = molecular target: inca1_human INCA1 (UniProt Q0VD86)
[11] = molecular target: cep76_human CEP76 (UniProt Q8TAP6)
[12] = molecular target: vps29_human VPS29 (UniProt Q9UBQ0)

For “Hemoglobin subunit beta (Homo sapiens), P68871 E7K”, the “effect of a mutation on the interaction” value [1] was “disrupting interaction strength”.

In the case of “Hemoglobin subunit beta (Homo sapiens), P68871 G57D”, the “effect of a mutation on the interaction” value [1] is reported as “with no effect”.

For “Hemoglobin subunit beta (Homo sapiens), P68871 V127G”, the “effect of a mutation on the interaction” value [1] was “disrupting interaction strength”.

In the case of “Hemoglobin subunit beta (Homo sapiens), P68871 V114E”, the “effect of a mutation on the interaction” value [1] is reported as “disrupting interaction strength”.

“Zinc finger protein 114 (Homo sapiens), Q8NC26 Q357P” was tested, and the “effect of a mutation on the interaction” value [2] was “with no effect”.

“Importin subunit alpha-1 (Homo sapiens) (from UniProt P52292) R117W” was tested, and the “effect of a mutation on the interaction” value [3] was “with no effect”, the “effect of a mutation on the interaction” value [4] was “with no effect” and the “effect of a mutation on the interaction” value [5] was “with no effect”. For the same substance, the “effect of a mutation on the interaction” value [6] was “with no effect” and the “effect of a mutation on the interaction” value [7] was “with no effect”.

In the case of “Hemoglobin subunit beta (Homo sapiens), P68871 F123S”, the “effect of a mutation on the interaction” value [1] is reported as “disrupting interaction strength”.

For “"DNA (cytosine-5)-methyltransferase 3A" (Homo sapiens) (from UniProt Q9Y6K1) E30A”, the “effect of a mutation on the interaction” value [8] was “with no effect”.

In the case of “Hemoglobin subunit beta (Homo sapiens), P68871 E7V”, the “effect of a mutation on the interaction” value [1] is reported as “disrupting interaction strength”.

With “Zinc finger protein 114 (Homo sapiens), Q8NC26 E19G” the “effect of a mutation on the interaction” value [2] was “with no effect”.

With “Hemoglobin subunit beta (Homo sapiens), P68871 T88P” the “effect of a mutation on the interaction” value [1] was “disrupting interaction strength”.

With “Hemoglobin subunit beta (Homo sapiens), P68871 F104L” the “effect of a mutation on the interaction” value [1] was “disrupting interaction strength”.

“Calcium-binding protein 5 (Homo sapiens), Q9NP86 R44Q” was tested, and the “effect of a mutation on the interaction” value [9] was “with no effect”, the “effect of a mutation on the interaction” value [10] was “with no effect” and the “effect of a mutation on the interaction” value [11] was “with no effect”.

For “"DNA (cytosine-5)-methyltransferase 3A" (Homo sapiens) (from UniProt Q9Y6K1) V372I”, the “effect of a mutation on the interaction” value [8] was “with no effect”.

With “Vacuolar protein sorting-associated protein 35 (Homo sapiens) (from UniProt Q96QK1) D620N” the “effect of a mutation on the interaction” value [12] was “with no effect”.

In the case of “Zinc finger protein 114 (Homo sapiens), Q8NC26 A229P”, the “effect of a mutation on the interaction” value [2] is reported as “with no effect”.

With “Importin subunit alpha-1 (Homo sapiens) (from UniProt P52292) V506D” the “effect of a mutation on the interaction” value [3] was “with no effect”, the “effect of a mutation on the interaction” value [4] was “with no effect” and the “effect of a mutation on the interaction” value [6] was “with no effect”. For the same substance, the “effect of a mutation on the interaction” value [7] was “with no effect”.

In the case of “Calcium-binding protein 5 (Homo sapiens), Q9NP86 T65R”, the “effect of a mutation on the interaction” value [9] is reported as “disrupting interaction strength”, the “effect of a mutation on the interaction” value [10] is reported as “with no effect” and the “effect of a mutation on the interaction” value [11] is reported as “with no effect”.

For “Hemoglobin subunit beta (Homo sapiens), P68871 D100Y”, the “effect of a mutation on the interaction” value [1] was “disrupting interaction strength”.

For “"DNA (cytosine-5)-methyltransferase 3A" (Homo sapiens) (from UniProt Q9Y6K1) N501S”, the “effect of a mutation on the interaction” value [8] was “with no effect”.

With “Vacuolar protein sorting-associated protein 35 (Homo sapiens) (from UniProt Q96QK1) L227F” the “effect of a mutation on the interaction” value [12] was “with no effect”.

With “Hemoglobin subunit beta (Homo sapiens), P68871 E102Q” the “effect of a mutation on the interaction” value [1] was “disrupting interaction strength”.

For “Calcium-binding protein 5 (Homo sapiens), Q9NP86 G73S”, the “effect of a mutation on the interaction” value [9] was “with no effect”, the “effect of a mutation on the interaction” value [10] was “with no effect” and the “effect of a mutation on the interaction” value [11] was “with no effect”.
